Experimental data from patent US20170081400A1 (CEPHALON, published 2017).
Where a chain is given by its changes, count along the chain named.

T1: human TL1A extracellular domain with N-terminal HIS and FLAG tag (human) (UniProt O95150)
T1 sequence: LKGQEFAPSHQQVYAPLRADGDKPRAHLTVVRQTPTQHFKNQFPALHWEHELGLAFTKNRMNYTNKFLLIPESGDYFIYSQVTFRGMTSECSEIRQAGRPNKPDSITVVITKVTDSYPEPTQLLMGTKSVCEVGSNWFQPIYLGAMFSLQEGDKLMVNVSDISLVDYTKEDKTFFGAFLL

T2: human TL1A extracellular domain with N-terminal HIS and FLAG tag (human, UniProt O95150 72-251)
T2 construct: whole entry named. ~70 kDa fraction purified by gel filtration
T2 sequence: T1 sequence

B1: 320-198 (antibody, human IgG1, name in Kabat numbering, V domains shown)
VH: QVQLVQSGAEVKKPGASVKVSCKASGYTFTSYDINWVRQAPGQGLEWMGWLNPNSGNTGYAQKFQGRVTMTADRSTSTAYMELSSLRSEDTAVYYCAREVPETAAFEYWGQGTLVTVSS
VL: QSVLTQPPSVSGAPGQRVTISCLSSSSDIGAGLGVHWYQQLPGTAPKLLIEGYYNRPSGVPDRFSGSKSGTSASLTITGLLPEDEGDYYCQSYDGTLSALFGGGTKLTVLG
notes: human IgG1, lambda
B2: 320-207 (antibody, human IgG1, name in Kabat numbering, V domains shown)
VH: B1 VH
VL: B1 VL with L23T, S24W
notes: human IgG1, lambda
B3: 320-241 (antibody, human IgG1, name in Kabat numbering, V domains shown)
VH: B1 VH
VL: B1 VL with L23T, I29A
notes: human IgG1, lambda
B4: 320-245 (antibody, human IgG1, name in Kabat numbering, V domains shown)
VH: B1 VH
VL: B1 VL with L23T, I29H
notes: human IgG1, lambda
B5: 320-209 (antibody, human IgG1, name in Kabat numbering, V domains shown)
VH: B1 VH
VL: B1 VL with L23T, S25A
notes: human IgG1, lambda
B6: 320-202 (antibody, human IgG1, name in Kabat numbering, V domains shown)
VH: B1 VH
VL: B1 VL with L23T, S24Q
notes: human IgG1, lambda
B7: 320-219 (antibody, human IgG1, name in Kabat numbering, V domains shown)
VH: B1 VH
VL: B1 VL with L23T, S26D
notes: human IgG1, lambda
B8: 320-229 (antibody, human IgG1, name in Kabat numbering, V domains shown)
VH: B1 VH
VL: B1 VL with L23T, S27K
notes: human IgG1, lambda
B9: 320-226 (antibody, human IgG1, name in Kabat numbering, V domains shown)
VH: B1 VH
VL: B1 VL with L23T, S27Q
notes: human IgG1, lambda
B10: 320-247 (antibody, human IgG1, name in Kabat numbering, V domains shown)
VH: B1 VH
VL: B1 VL with L23T, I29L
notes: human IgG1, lambda
B11: 320-234 (antibody, human IgG1, name in Kabat numbering, V domains shown)
VH: B1 VH
VL: B1 VL with L23T, D28S
notes: human IgG1, lambda
B12: 320-231 (antibody, human IgG1, name in Kabat numbering, V domains shown)
VH: B1 VH
VL: B1 VL with L23T, S27W
notes: human IgG1, lambda
B13: 320-238 (antibody, human IgG1, name in Kabat numbering, V domains shown)
VH: B1 VH
VL: B1 VL with L23T, D28L
notes: human IgG1, lambda
B14: 320-232 (antibody, human IgG1, name in Kabat numbering, V domains shown)
VH: B1 VH
VL: B1 VL with L23T, S27Y
notes: human IgG1, lambda
B15: 320-223 (antibody, human IgG1, name in Kabat numbering, V domains shown)
VH: B1 VH
VL: B1 VL with L23T, S26W
notes: human IgG1, lambda
B16: 320-240 (antibody, human IgG1, name in Kabat numbering, V domains shown)
VH: B1 VH
VL: B1 VL with L23T, D28Y
notes: human IgG1, lambda
B17: 320-225 (antibody, human IgG1, name in Kabat numbering, V domains shown)
VH: B1 VH
VL: B1 VL with L23T, S27A
notes: human IgG1, lambda
B18: 320-235 (antibody, human IgG1, name in Kabat numbering, V domains shown)
VH: B1 VH
VL: B1 VL with L23T, D28Q
notes: human IgG1, lambda
B19: 320-251 (antibody, human IgG1, name in Kabat numbering, V domains shown)
VH: B1 VH
VL: B1 VL with L23T, G30S
notes: human IgG1, lambda
B20: 320-239 (antibody, human IgG1, name in Kabat numbering, V domains shown)
VH: B1 VH
VL: B1 VL with L23T, D28W
notes: human IgG1, lambda
B21: 320-249 (antibody, human IgG1, name in Kabat numbering, V domains shown)
VH: B1 VH
VL: B1 VL with L23T, I29Y
notes: human IgG1, lambda
B22: 320-243 (antibody, human IgG1, name in Kabat numbering, V domains shown)
VH: B1 VH
VL: B1 VL with L23T, I29Q
notes: human IgG1, lambda
B23: 320-242 (antibody, human IgG1, name in Kabat numbering, V domains shown)
VH: B1 VH
VL: B1 VL with L23T, I29S
notes: human IgG1, lambda
B24: 320-230 (antibody, human IgG1, name in Kabat numbering, V domains shown)
VH: B1 VH
VL: B1 VL with L23T, S27L
notes: human IgG1, lambda
B25: 320-248 (antibody, human IgG1, name in Kabat numbering, V domains shown)
VH: B1 VH
VL: B1 VL with L23T, I29W
notes: human IgG1, lambda
B26: 320-228 (antibody, human IgG1, name in Kabat numbering, V domains shown)
VH: B1 VH
VL: B1 VL with L23T, S27H
notes: human IgG1, lambda
B27: 320-224 (antibody, human IgG1, name in Kabat numbering, V domains shown)
VH: B1 VH
VL: B1 VL with L23T, S26Y
notes: human IgG1, lambda
B28: 320-227 (antibody, human IgG1, name in Kabat numbering, V domains shown)
VH: B1 VH
VL: B1 VL with L23T, S27D
notes: human IgG1, lambda
B29: 320-250 (antibody, human IgG1, name in Kabat numbering, V domains shown)
VH: B1 VH
VL: B1 VL with L23T, G30A
notes: human IgG1, lambda
B30: 320-246 (antibody, human IgG1, name in Kabat numbering, V domains shown)
VH: B1 VH
VL: B1 VL with L23T, I29K
notes: human IgG1, lambda

biological target: T1, human TL1A extracellular domain with N-terminal HIS and FLAG tag (human); assay: cell-based or functional assay

Antibody IC50, TL1A induced caspase potency assay in TF-1 cells [µg/mL] | Fold improvement over 320-179, TL1A induced caspase potency assay in TF-1 cells [fold] | Binder
0.01 | 1 | B1
0.007 | 3 | B2
0.02 | 1 | B3
0.54 | 0 | B4
0.04 | 1 | B5
0.01 | 1 | B6
0.02 | 2 | B7
0.04 | 2 | B8
0.03 | 1 | B9

biological target: T2, human TL1A extracellular domain with …; assay: SPR run 2; supernatant on Protein A; TL1A 10 ug/mL; timepoint 44
Source text: (§1) 1.5. Antibody expression and antigen binding as determined by SPR. Using a CM5 sensor chip (GE Healthcare) Protein A (Pierce) was coupled to the chip surface using an amine coupling kit (GE Healthcare). Protein A was coupled on flow cell 1 and 2 (or alternatively 3 and 4) using a BIACORE® T200. […] The amount of supernatant or purified protein (as well as the concentration) injected during the capture stage varied between runs and is specified in the header of the Tables 3-11. At the end of injection of the supernatant or purified antibody the change in response units was measured. This value was reported as Capture Level in Tables 3-11. […] The response units were measured prior to the end of the dissociation phase. […] The sensorgrams were double referenced (flow cell 2 is subtracted from flow cell 1 and a buffer blank). As there were a large number of antibody variants to screen, these were screened across different runs (Tables 3-11). […] A summary of the conditions used in each run is below:
(§2) 2.1. […] In some experiment the antibodies were purified using Protein A chromatography (See 1.4) and purified antibodies were used in BIACORE® (GE Healthcare) experiments.

TL1A Binding Level (Early) [RU] | Binder
262 | B1
205 | B10
262 | B11
271 | B12
221 | B13
261 | B14
143 | B15
268 | B2
230 | B16
267 | B17
256 | B18
134 | B19
179 | B3
59 | B4
212 | B20
77 | B21
71 | B22
222 | B5
124 | B23
245 | B24
234 | B6
96 | B25
259 | B26
198 | B27
242 | B28
180 | B29
32 | B30
243 | B7
268 | B8
250 | B9

biological target: T2, human TL1A extracellular domain with …; assay: SPR run 2; supernatant on Protein A; TL1A 10 ug/mL; timepoint 220
Source text: as §1, §2

TL1A Binding Level (Late) [RU] | Binder
241 | B1
162 | B10
239 | B11
243 | B12
191 | B13
235 | B14
66 | B15
243 | B2
196 | B16
243 | B17
236 | B18
50 | B19
122 | B3
26 | B4
163 | B20
28 | B21
26 | B22
200 | B5
49 | B23
223 | B24
214 | B6
30 | B25
235 | B26
153 | B27
218 | B28
115 | B29
23 | B30
220 | B7
251 | B8
228 | B9
